Reference: patent US20240368668A1, “SUBSTRATES AND BIOMARKERS OF ADAMTS7” (The Broad Institute, Inc., priority 2021, published 2024)
Square brackets hold non-standard residues; d marks the D form. Ends that are not written are not given here.

Target: T1, mouse ADAMTS7 (Mus musculus, UniProt Q68SA9)
T1 construct: Full-length mouse Adamts7 1-1857 (Uniprot Q68SA9, WT or E373Q catalytic mutant); expressed in transfected cells; host or cells: Human Coronary Artery Smooth Muscle Cells (HCA-SMC, Lonza), adenovirus 50 MOI
T1 sequence (Q68SA9 221-1657): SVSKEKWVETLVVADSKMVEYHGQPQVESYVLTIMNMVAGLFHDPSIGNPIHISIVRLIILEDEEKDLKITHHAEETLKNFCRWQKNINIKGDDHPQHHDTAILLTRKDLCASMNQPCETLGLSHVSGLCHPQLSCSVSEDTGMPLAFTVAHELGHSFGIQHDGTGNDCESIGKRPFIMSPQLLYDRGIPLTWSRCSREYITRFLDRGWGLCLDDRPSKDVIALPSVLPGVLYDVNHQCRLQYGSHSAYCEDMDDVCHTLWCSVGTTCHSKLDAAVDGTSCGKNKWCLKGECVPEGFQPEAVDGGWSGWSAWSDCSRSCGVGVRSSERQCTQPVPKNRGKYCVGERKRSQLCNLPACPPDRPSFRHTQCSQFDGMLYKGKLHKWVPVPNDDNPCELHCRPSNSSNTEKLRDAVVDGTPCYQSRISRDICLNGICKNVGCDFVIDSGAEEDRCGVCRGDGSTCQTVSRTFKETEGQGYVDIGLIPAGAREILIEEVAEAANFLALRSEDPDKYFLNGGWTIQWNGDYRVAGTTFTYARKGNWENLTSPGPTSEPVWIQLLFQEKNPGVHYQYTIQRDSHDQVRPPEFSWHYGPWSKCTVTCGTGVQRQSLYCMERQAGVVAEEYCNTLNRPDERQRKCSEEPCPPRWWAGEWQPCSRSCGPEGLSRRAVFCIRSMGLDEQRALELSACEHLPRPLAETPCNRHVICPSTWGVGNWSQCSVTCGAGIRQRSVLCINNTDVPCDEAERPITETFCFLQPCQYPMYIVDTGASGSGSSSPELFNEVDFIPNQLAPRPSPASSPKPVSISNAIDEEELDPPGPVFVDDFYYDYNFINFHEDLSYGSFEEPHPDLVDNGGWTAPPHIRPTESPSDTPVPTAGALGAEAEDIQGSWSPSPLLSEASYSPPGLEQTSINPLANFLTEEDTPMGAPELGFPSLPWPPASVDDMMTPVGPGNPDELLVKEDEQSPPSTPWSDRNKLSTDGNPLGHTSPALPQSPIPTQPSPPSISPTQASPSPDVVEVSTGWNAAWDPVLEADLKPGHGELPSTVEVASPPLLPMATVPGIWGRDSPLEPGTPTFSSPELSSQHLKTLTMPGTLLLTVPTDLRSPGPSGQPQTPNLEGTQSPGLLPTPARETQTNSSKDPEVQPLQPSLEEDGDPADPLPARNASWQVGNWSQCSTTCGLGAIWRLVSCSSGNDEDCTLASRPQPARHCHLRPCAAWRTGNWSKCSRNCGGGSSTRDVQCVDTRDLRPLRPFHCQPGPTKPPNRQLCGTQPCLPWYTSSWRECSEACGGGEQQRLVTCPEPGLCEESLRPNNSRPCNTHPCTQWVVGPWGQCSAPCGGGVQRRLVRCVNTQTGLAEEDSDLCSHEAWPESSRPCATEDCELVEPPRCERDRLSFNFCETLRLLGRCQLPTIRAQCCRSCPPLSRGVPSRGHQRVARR
Experiment: TMT10 TAILS N-terminomics, SMC2 experiment (process replicates, trypsin/AspN digest)
Format: cell-based
Details: for logFC.mWT.over.Luc: SMC2_TAILS HC; for logFC.mWT.over.Lux: ADAMTS7 WT over luciferase
Outline: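 Full-length mouse ADAMTS7 (WT or E373Q mutant, C-terminal 3xFLAG) or luciferase was transduced via adenovirus, 50 MOI, into HCA-SMC (SMC1, SMC2) or HUVEC. SMC1: pooled media, technical triplicates 400 ug; SMC2: process triplicates 300 ug; HUVEC: process triplicates 200 ug, bFGF2 10 ng/ml.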

[1] = log fold change of N-terminal peptide, Ad-mADAMTS7 WT over Luc

Substance	logFC.mWT.over.Luc (log fold change, mWT over Luc)	logFC.mWT.over.Lux (log fold change)	further results
VIM_276 (YESVAAKNLQ; listed as Homo sapiens)	–	–	logFC.mWT.over.Luc [1]: 0.88
FSTL_1290 (LQKHQETA; listed as Homo sapiens)	2.58	–	–
EIF4B_426 (QTGTSTTSSR; listed as Homo sapiens)	5.61	–	–
FBLN2_665 (FSQVASNTIPLPLPQPNTCK; listed as Homo sapiens)	1.74	–	–
FOXG1_235 (LNKCFVKVPRHY; listed as Homo sapiens)	3.42	–	–
ECM1_38 (FQEVGYAAPPSPPLSR; listed as Homo sapiens)	1.54	–	–
SPOCK1_126 (HWVGPSNLVK; listed as Homo sapiens)	–	1.29	–
EEF1G_23 (QYSGAQVR; listed as Homo sapiens)	3.18	–	–
FN1_2113 (FVTHPGY; listed as Homo sapiens)	1.38	–	–
FN1_35 ([code q]MVQPQSPVAVSQSKPGCY; not fully specified (residue 2); listed as Homo sapiens)	1.99	–	–
KRT28_2 (SLQFSNGSR; listed as Homo sapiens)	1.88	–	–
SERPINH1_27 (AAAPGTAEKLSPKAATLAER; listed as Homo sapiens)	–	2.62	–
TGFBI_208 (GIVTVNCAR; listed as Homo sapiens)	–	0.89	–
VASP_229 (AIAGAKLR; listed as Homo sapiens)	–	4.48	–
FN1_607 (SSSGPVEVFIT; listed as Homo sapiens)	1.08	–	–
ZSCAN4_25 (FQQSQGPAVQR; listed as Homo sapiens)	–	–	logFC.mWT.over.Luc [1]: 2.79
EMSY_943 (QTVVQVLAVK; listed as Homo sapiens)	1.13	–	–

Substance	logFC.mWT.over.Luc (log fold change, mWT over Luc)	logFC.mWT.over.Lux (log fold change)	further results
STC2_244 (HHLPEPSSR; listed as Homo sapiens)	–	1.09	–
SDC4_106 (LEENEVIPKR; listed as Homo sapiens)	–	1.32	–
AMER2_654 (LAGTTIRATACH; listed as Homo sapiens)	0.95	–	–
TGFBI_534 (EGVYTVFAPTNEAFR; listed as Homo sapiens)	–	0.91	–
ECM1_44 (AAPPSPPLSR; listed as Homo sapiens)	2.25	–	–
VIM_322 (QVQSLTCEV; listed as Homo sapiens)	–	–	logFC.mWT.over.Luc [1]: 1.01
FN1_1693 (LQPTVEYVVSVYAQNPSG; listed as Homo sapiens)	1.99	–	–
BMPER_43 (LTGSVAKCENEG; listed as Homo sapiens)	2.37	–	–
ACTG1_105 (LTEAPLNPKANR; listed as Homo sapiens)	1.80	–	–
CAP1_300 (FSAPKPQTSPSPKR; listed as Homo sapiens)	2.91	–	–
FLNC_2649 (FVGQKNSFTV; listed as Homo sapiens)	3.91	–	–
VCAN_3367 (FKNSSSAK; listed as Homo sapiens)	–	–	logFC.mWT.over.Luc [1]: 0.79
SRGN_50 (LEEKGPMFELLPGESNKIPR; listed as Homo sapiens)	–	3.21	–
ADAM9_74 (GKEHIIHLER; listed as Homo sapiens)	4.13	–	–
LOXL1_157 (SVSASAFASTYR; listed as Homo sapiens)	2.71	–	–
TLN1_1501 (HTSALCNSCR; listed as Homo sapiens)	–	1.31	–
APOA1_86 (EQLGPVTQEFW; listed as Homo sapiens)	1.80	–	–

Now from value to substance, other results behind:

logFC.mWT.over.Luc (log fold change, mWT over Luc)	logFC.mWT.over.Lux (log fold change)	Substance	further results
1.35	–	FN1_99 (DKYTGNTYR; listed as Homo sapiens)	–
–	2.91	VIM_433 (LVDTHSKR; listed as Homo sapiens)	–
–	0.94	QSOX1_558 (VAAAPELAMGALELESR; listed as Homo sapiens)	–
1.65	–	CTSB_109 (WAFGAVEAIS; listed as Homo sapiens)	–
–	4.08	TG_1017 (GASALLR; listed as Homo sapiens)	–
–	2.82	SRGN_62 (GESNKIPR; listed as Homo sapiens)	–
0.90	–	HEG1_51 (GLELQLER; listed as Homo sapiens)	–
3.12	–	ECM1_108 (QEAVPLQK; listed as Homo sapiens)	–
2.70	–	APLP2_452 (LVETHLAR; listed as Homo sapiens)	–
3.45	–	LOX_125 (FQAGYSTSR; listed as Homo sapiens)	–
2.37	–	CALU_176 (FTAFLHPEEY; listed as Homo sapiens)	–
1.67	–	FN1_1780 (LQGLRPGSEYTVSVVALH; listed as Homo sapiens)	–
2.45	–	ADAM10_86 (FKVETSNKVL; listed as Homo sapiens)	–
1.25	–	LOX_60 (LGSQYQPQR; listed as Homo sapiens)	–
2.65	–	ACTN4_5 (HAANQSYQYGPSSAGNGAGGGGSMG; listed as Homo sapiens)	–
–	1.63	VASN_138 (HIQPGAFDTLDR; listed as Homo sapiens)	–
–	1.59	STC2_239 (HGEAGHHLPEPSSR; listed as Homo sapiens)	–
–	3.57	SRGN_60 (LPGESNKIPR; listed as Homo sapiens)	–

logFC.mWT.over.Luc (log fold change, mWT over Luc)	logFC.mWT.over.Lux (log fold change)	Substance	further results
–	0.77	TGFBI_24 (GPAKSPYQLVLQHSR; listed as Homo sapiens)	–
–	1.75	SMOC1_35 (LISDRDPQCNLHCSR; listed as Homo sapiens)	–
3.54	–	HEG1_224 (FQTKSGTAS; listed as Homo sapiens)	–
4.67	–	FLNA_689 (VNKPAEFTV; listed as Homo sapiens)	–
–	0.75	TGFBI_276 (TLLAPT[code n]EAFEKIPSETLNR; not fully specified; listed as Homo sapiens)	–
2.43	–	FN1_1805 (LIGTQSTAIPAPT; listed as Homo sapiens)	–
1.35	–	CCL2_28 (INAPVTCCYNFTNR; listed as Homo sapiens)	–
1.77	–	DIS3L_75 (FPELKGIIFMQTACQAVQHQR; listed as Homo sapiens)	–
–	0.96	TGFBI_50 (AVQKVIGTNR; listed as Homo sapiens)	–
–	3.55	THBS1_972 (QNDPNWVVR; listed as Homo sapiens)	–
–	0.75	TGFBI_497 (VLTPPMGTVMDVLKGDNR; not fully specified (residue 6); listed as Homo sapiens)	–
5.35	–	ADNP2_375 (SQPVGPVNK; listed as Homo sapiens)	–
–	1.66	SRGN_51 (EEKGPMFELLPGESNKIPR; listed as Homo sapiens)	–
–	4.56	STC1_37 (QNSAEVVR; listed as Homo sapiens)	–
–	0.85	TGFBI_43 ([code q]HGPNVCAVQKVIGTNR; not fully specified; listed as Homo sapiens)	–
1.61	–	DBN1_434 (APVEPATA; listed as Homo sapiens)	–
2.33	–	CEP192_728 (DKSTAGR; listed as Homo sapiens)	–
1.60	–	KCND1_436 (RLAKSGTTNAFLQYKQNGGLE; listed as Homo sapiens)	–
